Measured values published in patent US20060263345A1, “Butyrylcholinesterase variant polypeptides with increased catalytic efficiency and methods of use” (priority 2003, published 2006).

Experiment: microtiter isotope tracer [3H]-cocaine hydrolysis assay of immobilized butyrylcholinesterase variants
Assay type: biochemical
Settings: for Relative Activity of butyrylcholinesterase variants (WT = 1) with enhanced cocaine hydrolase activity: relative to wild-type = 1, catalytic efficiency (Vmax/Km), [3H]-cocaine microtiter assay
Text: At the conclusion of the isotope tracer assay, an aliquot of the reaction mix is acidified in order to take advantage of the solubility difference between the product and the substrate at pH 3.0. […] Prospect, Ill.) while [3H]-cocaine is not.
The supernatants isolated from each of the butyrylcholinesterase variant library clones contains variable butyrylcholinesterase enzyme concentrations.
At least three approaches are used to either increase the assay sensitivity or the assay signal.
Km values for (−)-cocaine are determined at 37° C. Vmax and Km values are calculated using Sigma Plot (Jandel Scientific, San Rafael, Calif.). The number of active sites of butyrylcholinesterase is determined by the method of residual activity using echothiopate iodide or diisopropyl fluorophosphates as titrants, as described previously by Masson et al., Biochemistry 36: 2266-2277 (1997). […] Purified human butyrylcholinesterase is used as the standard for the ELISA quantitation assay. The catalytic rate constant, kcat, is calculated by dividing Vmax by the concentration of active sites.

Molecule | cocaine hydrolysis activity compared to butyrylcholinesterase (in words) (compared to human butyrylcholinesterase) | increase in cocaine hydrolysis activity relative to butyrylcholinesterase (compared to human butyrylcholinesterase SEQ ID NO: 44, approximate values) | Relative Activity of butyrylcholinesterase variants (WT = 1) with enhanced cocaine hydrolase activity
A328W/F227A (protein, Butyrylcholinesterase variant) EDDIIIATKNGKVRGMNLTVFGGTVTAFLGIPYAQPPLGRLRFKKPQSLTKWSDIWNATKYANSCCQNIDQSFPGFHGSEMWNPNTDLSEDCLYLNVWIPAPKPKNATVLIWIYGGGFQTGTSSLHVYDGKFLARVERVIVVSMNYRVGALGFLALPGNPEAPGNMGLFDQQLALQWVQKNIAAFGGNPKSVTLFGESAGAASVSLHLLSPGSHSLFTRAILQSGSANAPWAVTSLYEARNRTLNLAKLTGCSRENETEIIKCLRNKDPQEILLNEAFVVPYGTPLSVNFGPTVDGDFLTDMPDILLELGQFKKTQILVGVNKDEGTWFLVYGAPGFSKDNNSIITRKEFQEGLKIFFPGVSEFGKESILFHYTDWVDDQRPENYREALGDVVGDYNFICPALEFTKKFSEWGNNAFFYYFEHRSSKLPWPEWMGVMHGYEIEFVFGLPLERRDNYTKAEEILSRSIVKRWANFAKYGNPNETQNNSTSWPVFKSTEQKYLTLNTESTRIMTKLRAQQCRFWTSFFPKVLEMTGNIDEAEWEWKAGFHRWNNYMMDWKNQFNDYTSKKESCVGL | enhanced cocaine hydrolase activity | sixty-eight | 68
P285Q (protein, UniProt P06276 29-602, looked up, variant P285Q) Cholinesterase: EDDIIIATKNGKVRGMNLTVFGGTVTAFLGIPYAQPPLGRLRFKKPQSLTKWSDIWNATKYANSCCQNIDQSFPGFHGSEMWNPNTDLSEDCLYLNVWIPAPKPKNATVLIWIYGGGFQTGTSSLHVYDGKFLARVERVIVVSMNYRVGALGFLALPGNPEAPGNMGLFDQQLALQWVQKNIAAFGGNPKSVTLFGESAGAASVSLHLLSPGSHSLFTRAILQSGSFNAPWAVTSLYEARNRTLNLAKLTGCSRENETEIIKCLRNKDPQEILLNEAFVVPYGTQLSVNFGPTVDGDFLTDMPDILLELGQFKKTQILVGVNKDEGTAFLVYGAPGFSKDNNSIITRKEFQEGLKIFFPGVSEFGKESILFHYTDWVDDQRPENYREALGDVVGDYNFICPALEFTKKFSEWGNNAFFYYFEHRSSKLPWPEWMGVMHGYEIEFVFGLPLERRDNYTKAEEILSRSIVKRWANFAKYGNPNETQNNSTSWPVFKSTEQKYLTLNTESTRIMTKLRAQQCRFWTSFFPKVLEMTGNIDEAEWEWKAGFHRWNNYMMDWKNQFNDYTSKKESCVGL |  |  | 2.4
P285S (protein, UniProt P06276 29-602, looked up, variant P285S) Cholinesterase: EDDIIIATKNGKVRGMNLTVFGGTVTAFLGIPYAQPPLGRLRFKKPQSLTKWSDIWNATKYANSCCQNIDQSFPGFHGSEMWNPNTDLSEDCLYLNVWIPAPKPKNATVLIWIYGGGFQTGTSSLHVYDGKFLARVERVIVVSMNYRVGALGFLALPGNPEAPGNMGLFDQQLALQWVQKNIAAFGGNPKSVTLFGESAGAASVSLHLLSPGSHSLFTRAILQSGSFNAPWAVTSLYEARNRTLNLAKLTGCSRENETEIIKCLRNKDPQEILLNEAFVVPYGTSLSVNFGPTVDGDFLTDMPDILLELGQFKKTQILVGVNKDEGTAFLVYGAPGFSKDNNSIITRKEFQEGLKIFFPGVSEFGKESILFHYTDWVDDQRPENYREALGDVVGDYNFICPALEFTKKFSEWGNNAFFYYFEHRSSKLPWPEWMGVMHGYEIEFVFGLPLERRDNYTKAEEILSRSIVKRWANFAKYGNPNETQNNSTSWPVFKSTEQKYLTLNTESTRIMTKLRAQQCRFWTSFFPKVLEMTGNIDEAEWEWKAGFHRWNNYMMDWKNQFNDYTSKKESCVGL |  |  | 1.9
